Assay [1] concerns the target Arah2-pσ1 fusion protein. Description: flow cytometry; control serum in place of anti-pσ1 serum on L cells stained with Arah2-pσ1, FITC-labeled anti-rabbit. A general note: Flow cytometry measures light scatter and fluorescence of single cells or particles in a stream.
Assay [2] has as its target Arah2-pσ1 fusion protein. The experiment in a line: flow cytometry; control serum in place of anti-pσ1 serum on HeLa cells stained with Arah2-pσ1, FITC-labeled anti-rabbit.
For assay [3], the target named is component of tight junctions expressed by L-cells. The experiment in a line: flow cytometry on L cells, 20 µg Arah2-pσ1, detected with anti-pσ1 rabbit serum and FITC-labeled anti-rabbit.

Turning to normal rabbit serum, the MFI in assay [1] turned out to be 32 MFI; in assay [2] it was 26 MFI.
Regarding Arah2-pσ1 fusion protein, the MFI in assay [3] turned out to be 1880 MFI.

Source of the values: patent US20180243408A1.
